Experimental findings from the nanobody polyreactivity screen of Harvey et al. (2022) are described below.

A short description of this data set: yeast display, Sf9 membrane polyspecificity reagent, FACS + sequencing; frameworks hold sequencing errors. The method in brief:
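A nanobody's polyreactivity label depends on the gate it was sorted from. Yeast display cells were stained with 10% biotinylated, detergent-solubilized Sf9 membrane reagent for 1 hour at 4 °C, enriched on streptavidin microbeads and sorted by FACS. The low and high (top ~1%) gates were set on anti-HA fluorescence for expression and streptavidin fluorescence for reagent binding.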
As for “QVQLVESGGGLVQAGGSLRLSCAASGLIFVDNAMGWYRQAPGKERELVAAIESGGSTNYADSVKGRFTISRDNAKNTVYLHMNSLKPEDTAVYYCAADWIYAPWYYQESVEYYYWGQGTQVTVSS”, the “polyreactivity (PSR sort gate)” value was “low polyreactivity”.

For the sequence “QVQLVESGGGLVQAGGSLRLSCAASGLIFVGNAMGWYRQAPGKERELVAAISSRGGRTYYADSVKGRFTISRDNAKNTVYLQMNSLKPEDTAVYYCNAAKSQWGFEYWGQGTQVTVSS”, the “polyreactivity (PSR sort gate)” value was “high polyreactivity”.

Consider “QVQLVESGGGLVQAGGSLRLSCAASGLIFVGYAMGWSRQAPGKERELVAAITSGGYTKYADSVKGRFTISRDNAKYSVYLQMNSLKPEDTAVYFCAASGWRKWWSARNYYWGQGTQVTVSS”, for which the “polyreactivity (PSR sort gate)” value is on record as “low polyreactivity”.

“QVQLVESGGGLVQAGGSLRLSCAASGLIFVINAMGWYRQAPGKERELVATISSRVSTNYADSVKGRFTISRDNAKNTVYLQMNSLKPEDTAVYYCNKGQTVSRGYRLYERFDYWGQGTQVTVSS”: the “polyreactivity (PSR sort gate)” value is reported as “low polyreactivity”.

In the case of “QVQLVESGGGLVQAGGSLRLSCAASGLIFVKYAMGWYRQAPGKERELVAAITSTGGSTYYADSVKGRFTISRDNAKNTVYLQMNILKPEDTAVYYCATDYGYYDYWGQGTQVTVSS”, the “polyreactivity (PSR sort gate)” value is reported as “low polyreactivity”.

As to “QVQLVESGGGLVQAGGSLRLSCAASGLIFVKYARGWYRQAPGKEREFVAAITRSGGTTYYADSVKGRFTISRDNAKNPVYLQMNSLKPEDTAVYYCAAGVVIYFFGGGDYWGQGPQVTVSS”, the “polyreactivity (PSR sort gate)” value is “low polyreactivity”.

Regarding “QVQLVESGGGLVQAGGSLRLSCAASGLIFVQNAMGWYRPAPGKERELVAAISSRGTNTYYADSVKGRFTISRDTAKNTVYLQMNSLKPEDTAVYYCAKPLKTPRPNYDYWGQGTQVTVSS”, the “polyreactivity (PSR sort gate)” value is “low polyreactivity”.

With “QVQLVESGGGLVQAGGSLRLSCAASGLIFVSYAMGWYRPAPGKERELVAAINSRGSRTYYADSVKGRFTISRDNAKNTVYLQMNSLKPEDTAVYYCAAGVIRYGGKEEYYYWGQGTQVTVSS”, the “polyreactivity (PSR sort gate)” value is “high polyreactivity”.

For “QVQLVESGGGLVQAGGSLRLSCAASGLIFVSYGMGWYRQAPGKERELVAAITFSGGSTYYADSVKGRFTISRDNAKNTVYLQMNSLKPEDTAVYYCNADYYPGYDYWGQGTQVTVSS”, the “polyreactivity (PSR sort gate)” value was “high polyreactivity”.

For “QVQLVESGGGLVQAGGSLRLSCAASGLIFVVYVMGWYRQAPGKERELVAAISGSGDSTYYADSVKGRFTISRDNAKNTVYLQMNSLKPEDTAVYYCNARSISRKKGYPPQRSDGYWGQGTQVTVSS”, the “polyreactivity (PSR sort gate)” value is on record as “high polyreactivity”.

As for “QVQLVESGGGLVQAGGSLRLSCAASGLIFVWYALGWSRQAPGKERELVAAISWRGGTTYYADSVKGRFTISRDNAKNTVYLQMNSLKPEDTAVYYCNAEGSQVDYLRYVWYDMDYWGQGTQVTVSS”, the “polyreactivity (PSR sort gate)” value is on record as “low polyreactivity”.

For the sequence “QVQLVESGGGLVQAGGSLRLSCAASGLIFVYYTMGWYRQAPGKERELVARISQSGGTTYYADSVKGRFTISRDNAKNTVYLQMNSLKPEDTAVYYCNARRVGVHYRYDYWGQGTQVTVSS”, the “polyreactivity (PSR sort gate)” value was “high polyreactivity”.

Regarding “QVQLVESGGGLVQAGGSLRLSCAASGLIFWAYAMGWYRQAPGKERELVAAINSGGRTYYADSVKGRFTISRDNAKNTVYLQMNSLKPEDTAVYYCAAAGVYSSDYWGQGTQVTVSS”, the “polyreactivity (PSR sort gate)” value is on record as “low polyreactivity”.

For “QVQLVESGGGLVQAGGSLRLSCAASGLIFWAYAMGWYRQAPGKERELVAAINWRGGSTYYADSVKGRFTISRDNAKNTVYLQMNSLKPEDTAVYYCAADSYYDEYDYCGQGTQVTVSS”, the “polyreactivity (PSR sort gate)” value is “low polyreactivity”.

As for “QVQLVESGGGLVQAGGSLRLSCAASGLIFWAYAMGWYRQAPGKERELVAGISVSGGSTYYADSVKGRFTISRDNAKNTVYLQMNSLKPEDTAVYYCAARLPRTRYWDDYWGQGTQVTVSS”, the “polyreactivity (PSR sort gate)” value is listed as “high polyreactivity”.

“QVQLVESGGGLVQAGGSLRLSCAASGLIFWHYAMGWYRQAPGKERELVARISYGGGSTYYADSVKGRFTISRDNAKNTVYLQMNSLKPEDTAVYYCNAKYYSVSQYWYNYWGQGTQVTVSS”: the “polyreactivity (PSR sort gate)” value is listed as “high polyreactivity”.

As to “QVQLVESGGGLVQAGGSLRLSCAASGLIFYAYVMGWYRPAPGKERELVAAITVSGGSTYYADSVKGRFTISRDNAKNTVYLQMNSLKPEDTAVYYCAADWNFYQRTFDSWGQGTQVTVSS”, the “polyreactivity (PSR sort gate)” value is given as “low polyreactivity”.

Turning to “QVQLVESGGGLVQAGGSLRLSCAASGLIFYDNMGWSRQAPGKERELVAAISSSGGSTSYADSVKGRFTISRDNAKNTVYVQMNSLKPVDTAVYYCAADSYPAYLGFVGFDYWGQGTQVTVSS”, the “polyreactivity (PSR sort gate)” value is given as “low polyreactivity”.

For the sequence “QVQLVESGGGLVQAGGSLRLSCAASGLIFYGYVMGWYRQAPGKERELVAGISRNSGSTYYADSVKGRFTISRDNAKITVYLQMKSLKPEDTAVYYCDALKFEAWAGEDYWGQGTQLTVSS”, the “polyreactivity (PSR sort gate)” value was “low polyreactivity”.

Regarding “QVQLVESGGGLVQAGGSLRLSCAASGLIFYHNTMGWYRQAPGKEREFVASITQSGGSTYYADSVKGRFTISRDNAKNTVYLQMNSLKPEDTAVYYCAKRLRPGGYWYDYWGQGTQVTVSS”, the “polyreactivity (PSR sort gate)” value is on record as “high polyreactivity”.

As to “QVQLVESGGGLVQAGGSLRLSCAASGLIFYKYAMGWYRQAPGNERELVAAISRGDNTYYADSVKGRFTISRDNAKNTVYLQMNSLKPEDTALYYCAAYRWIYQSQYQGYWLDYWGQGTQVTVSS”, the “polyreactivity (PSR sort gate)” value was “high polyreactivity”.

As to “QVQLVESGGGLVQAGGSLRLSCAASGLIFYLYAMGWYRQAPGKEMELVAAISSGGSTYYADSVKGRFTISRDNAKNTVYLQMISLKPEDTAVYYCNARYYYVSGLQAYYYWGQGTQVTVSS”, the “polyreactivity (PSR sort gate)” value is “high polyreactivity”.

“QVQLVESGGGLVQAGGSLRLSCAASGLIFYPYAMGWYRQAPGKERELVAGISSSGDSTYYADSVKGRFTISRDNAKNTVYLQMNSLKPDDTAVYYCNTGWDPYGYDYWGQGTQVTVSS”: the “polyreactivity (PSR sort gate)” value is on record as “low polyreactivity”.

Turning to “QVQLVESGGGLVQAGGSLRLSCAASGLIFYRYAMGRYRQAPRKERELVAAISSSGGSTYYADSVKGRFTISRDNAKNTVYLQMNSLKPEDTAVYYCSARPSTHGYKYGYWGQGTQVTVSS”, the “polyreactivity (PSR sort gate)” value is “high polyreactivity”.

With “QVQLVESGGGLVQAGGSLRLSCAASGLIFYRYAMGWYRQAPGKERELVAAISSSGGSTYYADSVKGRFTISRDNAKNTVYLQMNSLKPDDTAVYYCAARPSTHGYKYGYWGQGTQVTVSS”, the “polyreactivity (PSR sort gate)” value was “high polyreactivity”.

Consider “QVQLVESGGGLVQAGGSLRLSCAASGLIFYRYAMGWYRQAPGKERELVAVITRSGGNTNYADSVKGRFTISRDNAKNTVYLQMNSLKPEDTAVYYCATRGIWKKVPYYYWGQGTQVTVSS”, for which the “polyreactivity (PSR sort gate)” value was “high polyreactivity”.

Take “QVQLVESGGGLVQAGGSLRLSCAASGLIFYSYAMGWYRQAPGKERELVAAISKRGGSTYYADSVKGRFTISRDNAKNTVYLQMNSLKPEDTAVYYCAAVIHGSSQYYGGTYGRYYWGQGTQVTVSS”: the “polyreactivity (PSR sort gate)” value was “high polyreactivity”.

Take “QVQLVESGGGLVQAGGSLRLSCAASGLIFYYNAMGWYRPAPGKERELVAAISWSGGSTYYADSVKGRFTISRDNAKNTVYLQMNSLKPEDTAVYYCNADYHSVRRDYWGQGTQVTVSS”: the “polyreactivity (PSR sort gate)” value is on record as “low polyreactivity”.

Take “QVQLVESGGGLVQAGGSLRLSCAASGLIFYYNAMGWYRQAPGKERELVAAISTGGSTNYADSVKGRFTISRDNAKNTVYLQMNSLKPEDTAVYYCAAGTRNPYGYKMYYWGQGTQVTVSS”: the “polyreactivity (PSR sort gate)” value is reported as “high polyreactivity”.

Take “QVQLVESGGGLVQAGGSLRLSCAASGLIFYYNAMGWYRQAPGKERELVATIRGSGSSTYYADSVKGRFTISRDNAKNTVYLQMNSLKPEDTAVYYCAAKGYRCFRHGGYYFKFDYWGQGTQVTVSS”: the “polyreactivity (PSR sort gate)” value was “high polyreactivity”.

Consider “QVQLVESGGGLVQAGGSLRLSCAASGLIIPFYAMGWYRQAPGKERELVAAISWSAGSTYYADSVKGRFTISRDNAKNTVYLQMNCLKPEDTAVYYCAATAYYYYDYDYWGQGTQVTVSS”, for which the “polyreactivity (PSR sort gate)” value is recorded as “low polyreactivity”.

For the sequence “QVQLVESGGGLVQAGGSLRLSCAASGLIIRYYAMGWYRQARGKERELVAAISYNGGSTYYADSVKGRFTISRDNAKNTVYLQMNSLKPEDTAVYYCAARLYGRYGYWGQGTQVTVSS”, the “polyreactivity (PSR sort gate)” value is on record as “high polyreactivity”.

With “QVQLVESGGGLVQAGGSLRLSCAASGLIISWYAMGWNRQEPGTERELVAAISSGGSTTYADSVKGRFTISRDNAKNTVYLQMNSLKPEDTAVYYCNADQVFGYNYWGQGTQLTVSS”, the “polyreactivity (PSR sort gate)” value is recorded as “high polyreactivity”.

As to “QVQLVESGGGLVQAGGSLRLSCAASGLIIWLYTMGWYRQAPGKERELVAAIDWSGGSTYYADSVKGRFTISRDNAKNTVYLQMNSLKPEYTAVYYCAADPEPSYRFDYWGQGTQVTVSS”, the “polyreactivity (PSR sort gate)” value was “low polyreactivity”.

Take “QVQLVESGGGLVQAGGSLRLSCAASGLILKNYAMGWYRQAPWKERELVAAITRSGGSTYYADSVKGRFTISRDNAKNTVYLQMNSLKPEDTAVYYCAARNPSGKGRYDYRGQGTQVTVSS”: the “polyreactivity (PSR sort gate)” value is reported as “high polyreactivity”.

With “QVQLVESGGGLVQAGGSLRLSCAASGLILNYYTMGWYRQAPGKERELVATISSSTGSTYYADSVKGRFTISRDNAKNTVYLQMNSLKPEDTAVYYCAADHWSYWQIYDFWGQGTQVTVSS”, the “polyreactivity (PSR sort gate)” value is listed as “low polyreactivity”.

With “QVQLVESGGGLVQAGGSLRLSCAASGLILRKYAMGWYRQAPGKEREFVAAITQTGSRTYYADSVKVRFTISRDNAKYTVYFQMNSLIPEDTAVYYCNAVNYRSSRDSGYWGQGTQVTVSS”, the “polyreactivity (PSR sort gate)” value is listed as “high polyreactivity”.

Turning to “QVQLVESGGGLVQAGGSLRLSCAASGLILRRYAMGWYRQAPGKERELVAAITSGGRTYYADSVKGRFTISRDNAKNTVYLQMNSLKPEDTAVYYCNAVKLVRHTTPYDYWGQGTQVTVSS”, the “polyreactivity (PSR sort gate)” value was “high polyreactivity”.

As for “QVQLVESGGGLVQAGGSLRLSCAASGLILSDYVMGWYRQAPGKEREFVAAITSTGGSTYYADSVKGRFTISRDNAKNTVYLQMNSLKPEDTAVYYCAVRIHFPFPRRYYYWGQGTQVTVSS”, the “polyreactivity (PSR sort gate)” value is recorded as “high polyreactivity”.

Turning to “QVQLVESGGGLVQAGGSLRLSCAASGLILYNYAMGWYRQAPGKERELVAAISRSGGSTYYADSVKGRFTISRDNAKNTVYLQMNSLKPEDTAVYYCKVGYGRGSTIGGYDYWGQGTQVTVSS”, the “polyreactivity (PSR sort gate)” value is recorded as “high polyreactivity”.

For “QVQLVESGGGLVQAGGSLRLSCAASGLISDRNAMGWYRQAPGKERELVASIRSGGSTYYADSVKGRFTISRDNAKNTVYLQMNSQKPEDTAVYYCAAGGGHTPVSYYLVPYMDYWGQGTQVTVSS”, the “polyreactivity (PSR sort gate)” value is listed as “low polyreactivity”.
